One assay deals with 3T3 cells. Kind of assay: Overexpression of PSTPIP in transfected 3T3 cells, confocal microscopy. The format is cell-based, murine. The note with it: overexpression under cytomegalovirus promoter. How it is done: Rabbit polyclonal antibodies were produced against a GST-PSTPIP fusion protein. The complete PSTPIP-GST fusion protein was purified on GSH-sepharose and injected intramuscularly at 2 sites with 200 μg fusion protein and subcutaneously at multiple sites with a total of 300 μg PSTPIP-GST fusion protein in Complete Freunds Adjuvant. Rabbits were boosted every 3 weeks with 100 μg fusion protein in Incomplete Freunds. 15 ml of rabbit sera was reacted with 0.5 mg PSTPIP-GST-GSH-Sepharose for 3 hours at 4° C. with gentle rotation. The resin was collected by centrifugation and washed with 10 column volumes of PBS. Immunoglobulin was eluted from the affinity matrix with 100 mM acetic acid, 500 mM NaCl, neutralized with NaOH, and then dialyzed overnight with PBS. NIH 3T3 cells were seeded at 100,000 cells per chamber slide and allowed to adhere overnight. The cells were transfected using Lipofectamine™ (2 ug pRK.PIP.FLAG.C/12 ul Lipofectamine in 0.8 ml OPTI-MEM) for 5 hours. The DNA/Lipofectamine™ solution was removed and fresh serum containing medium added. […] Cells were stained with 0.4 μg/ml rabbit anti-PIP or 0.4 μg/ml rabbit IgG and detected with Cy3-corjugated goat anti-rabbit. […]

Assay [1] has as its target T1, full-length PTP HSCF with an N-terminal hemagglutinin epitope tag (UniProt Q61152 1-453).
T1 construct: range 1-453; In vitro translated or expressed in COS cells; also called the phosphatase; wild type PTP HSCF
T1 sequence (looked up): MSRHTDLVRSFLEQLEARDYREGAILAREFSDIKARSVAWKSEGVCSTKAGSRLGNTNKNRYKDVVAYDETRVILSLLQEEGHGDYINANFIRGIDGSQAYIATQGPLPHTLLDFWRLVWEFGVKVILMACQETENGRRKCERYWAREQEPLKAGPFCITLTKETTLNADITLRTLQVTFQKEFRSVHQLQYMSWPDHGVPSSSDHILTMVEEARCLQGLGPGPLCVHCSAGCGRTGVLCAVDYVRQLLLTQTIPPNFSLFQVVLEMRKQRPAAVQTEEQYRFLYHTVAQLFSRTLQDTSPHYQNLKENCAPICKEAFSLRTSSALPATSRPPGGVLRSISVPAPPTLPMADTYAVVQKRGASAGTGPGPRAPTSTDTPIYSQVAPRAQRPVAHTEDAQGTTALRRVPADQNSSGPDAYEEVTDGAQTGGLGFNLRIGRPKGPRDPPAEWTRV
Kind of assay: co-immunoprecipitation from co-transfected COS cells. The source says:
The resultant precipitates were resolved on SDS polyacrylamide gels and probed with anti-FLAG antibody (to detect PST PIP), anti-HA antibody (to detect PTP HSCF) and anti-pY (anti-phosphotyrosine antibody) to detect this modified residue on these proteins. Note that the $W232A$ mutant of PST PIP is neither coprecipitated with PTP HSCF nor is it "substrate trapped" (as determined by hyperphosphorylation) by the dominant negative (C-S) form of PTP HSCF, while the wild type form of the protein (PST PIP wt) is found in a complex with precipitated PTP HSCF and is hyperphosphorylated ("substrate trapped" (Jia et al., *Science* 268(5218):1754–1758 (1995); Garton et al., *Mol. Cell. Biol.* 16(11):6408–6418 (1996); Flint et al., *Proc. Natl. Acad. Sci. USA* 94(5):1680–1685 (1997); Spencer et al. (1997), supra)) by dominant negative (C-S) PTP HSCF.
In vitro binding analyses between various PTP HSCF and PST PIP constructs were performed as previously described (Spencer et al, (1997), supra). Briefly, plasmids were transcribed and translated in vitro using the TnT Rabbit Reticulocyte Lysate System (Promega). […] Samples were than reacted with GST fusion proteins at various concentrations, and the bound proteins were centrifuged using glutathione-sepharose beads and analyzed on SDS polyacrylamide gels. […]

B1: PSTPIP: murine PST Phosphatase Interacting Protein, 415 residues (SEQ ID NO:1) (protein)
chain: MMAQLQFRDAFWCRDFTAHTGYEVLLQRLLDGRKMCKDVEELLRQRAQAEERYGKELVQIARKAGGQTEMNSLRTSFDSLKQQTENVGSAHIQLALALREELRSLEEFRERQKEQRKKYEAIMDRVQKSKLSLYKKTMESKKAYDQKCRDADDAEQAFERVSANGHQKQVEKSQNKAKQCKESATEAERVYRQNIEQLERARTEWEQEHRTTCEAFQLQEFDRLTILRNALWVHCNQLSMQCVKDDELYEEVRLTLEGCDVEGDINGFIQSKSTGREPPAPVPYQNYYDREVTPLIGSPSIQPSCGVIKRFSGLLHGSPKTTPSAPAASTETLTPTPERNELVYASIEVQATQGNLNSSAQDYRALYDYTAQNSDELDISAGDILAVILEGEDGWWTVERNGQRGFVPGSYLEKL
modifications: Mus Musculus
On to B1, for which the “cell morphology on overexpression” value with 3T3 cells is on record as “induced a remarkable morphological change in a high percentage of cells”.

B2: W232A mutant of PST PIP, C-terminal FLAG (other)
chain: MMAQLQFRDAFWCRDFTAHTGYEVLLQRLLDGRKMCKDVEELLRQRAQAEERYGKELVQIARKAGGQTEMNSLRTSFDSLKQQTENVGSAHIQLALALREELRSLEEFRERQKEQRKKYEAIMDRVQKSKLSLYKKTMESKKAYDQKCRDADDAEQAFERVSANGHQKQVEKSQNKAKQCKESATEAERVYRQNIEQLERARTEWEQEHRTTCEAFQLQEFDRLTILRNALAVHCNQLSMQCVKDDELYEEVRLTLEGCDVEGDINGFIQSKSTGREPPAPVPYQNYYDREVTPLIGSPSIQPSCGVIKRFSGLLHGSPKTTPSAPAASTETLTPTPERNELVYASIEVQATQGNLNSSAQDYRALYDYTAQNSDELDISAGDILAVILEGEDGWWTVERNGQRGFVPGSYLEKLDYKDDDDK
notes: In vitro translated or expressed in COS cells; also called W232A PST PIP; PST PIP with an alanine replacement mutation at tryptophan232
B2: the binding result in assay [1] is reported as “no binding”.

The values above are taken from patent US6887705B1, “Tyrosine phosphorylated cleavage furrow-associated proteins (PSTPIPs)” (Genentech, Inc., priority 1997, dated 2005).
